# B1: CP-06 G6A (peptide)
# chain: YSWTWANRSSVRGC
# B2: CP-06 W5A (peptide)
# chain: YSWTAGNRSSVRGC
# B3: CP-06 N7A (peptide)
# chain: YSWTWGARSSVRGC
# B4: CP-06 R8A (peptide)
# chain: YSWTWGNASSVRGC
# B5: CP-06 R12A (peptide)
# chain: YSWTWGNRSSVAGC
# B6: CP-06 S10A (peptide)
# chain: YSWTWGNRSAVRGC
# B7: CP-06 S9A (peptide)
# chain: YSWTWGNRASVRGC
# B8: CP-06 V11A (peptide)
# chain: YSWTWGNRSSARGC
# B9: CP-06 T4A (peptide)
# chain: YSWAWGNRSSVRGC
# B10: CP-06 S2A (peptide)
# chain: YAWTWGNRSSVRGC
# Molecular target: T1, CD59 (immobilized for SPR), P13987
# T1 chain: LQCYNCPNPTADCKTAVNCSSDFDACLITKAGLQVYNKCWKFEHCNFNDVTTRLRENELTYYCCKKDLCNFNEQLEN
# Experiment: SPR
# Conditions: chain shown with the change; n = 1
row,Binder,ratio to parent
1,B1,21
2,B2,19
3,B3,19

# Same assay, conditions: chain shown with the change; n = 1; parent: est. 8.0; read off a plot
row,Binder,other: pKD (-Log10(KD))
1,B1,6.7
2,B2,6.7
3,B4,7.8
4,B5,7.1
5,B6,8
6,B3,6.7
7,B7,7.7
8,B8,7.6
9,B9,7.8
10,B10,7.9

# — article PMC12207370, “Macrocyclic Peptide Probes for Immunomodulatory Protein CD59: Potent Modulators of Bacterial Toxin Activity and Antibody‐Dependent Cytotoxicity” (Angewandte Chemie (International Ed. in English), 2025)
